Source: patent publication US20200115460A1 (TEIJIN PHARMA, published 2020)

Assays:
[1] = molecular target: T1, hIGFIR[L1-L2]/hINSR (human); assay: Cell ELISA, 10 nM antibody, fixed P3U1 cells expressing the chimera
T1 construct: Chimeric receptor on transfected P3U1 cells
Experimental: (§1) The gene of hIGFIR[L1-L2]/hINSR as Substitution 1 is shown in SEQ ID NO: 23; the gene of hINSR[L1-L2]/hIGFIR as Substitution 2 is shown in SEQ ID NO: 24; the gene of hINSR[L1]/hIGFIR as Substitution 3 is shown in SEQ ID NO: 25; and the gene of hINSR[L2]/hIGFIR as Substitution 4 is shown in SEQ ID NO: 26. After the lipofection, the P3U1 cells were cultured at least overnight and were added to a 96-well plate (coated with poly-D-lysine) at a concentration of 0.8×10⁵ cells/well and immobilized with 10% buffered formalin (Mildform® 10 NM, Wako), followed by blocking with phosphate buffer containing 3% BSA. The plate was used in ELISA.
(§2) In ELISA, 30 μL of an antibody solution adjusted to 10 nM with 0.1% skimmed milk/3% BSA/PBS was added to each well and was subjected to reaction at room temperature for about 1.5 hours. After washing with a washing liquid twice, 30 μL of an anti-mouse-IgG antibody-HRP conjugate solution adjusted to 5 nM with 0.1% skimmed milk/3% BSA/PBS was added to each well and was subjected to reaction at room temperature for about 1 hour. After washing with a washing liquid twice, 50 μL of a substrate (TMB) was added to each well to start the reaction. After about 20 minutes, 50 μL of 0.5 M sulfuric acid was added to each well to stop the reaction. The absorbances at 450 nm and 550 nm were measured, and the difference between absorbance values at 450 nm and 550 nm was calculated. The avidity was calculated based on the difference between absorbance values at 450 nm and 550 nm for cells (Mock cells, SEQ ID NO: 22) transfected with a vector not containing the gene of each substitution as a standard value 1 (Table 3).

[2] = molecular target: T2, hINSR[L1-L2]/hIGFIR (human); assay: as above
T2 construct: Chimeric receptor on transfected P3U1 cells
Experimental: as §1, §2

[3] = molecular target: T3, hINSR[L1]/hIGFIR (human); assay: as above
T3 construct: Chimeric receptor on transfected P3U1 cells
Experimental: as §1, §2

[4] = molecular target: T4, hINSR[L2]/hIGFIR (human); assay: as above
T4 construct: Chimeric receptor on transfected P3U1 cells
Experimental: as §1, §2

[5] = molecular target: T5, human IGF-I receptor (human, UniProt P08069 31-1367); assay: Cell ELISA, fixed cells expressing the receptor
T5 construct: Expressed on transfected P3U1 or HEK 293T cells, or native on human myoblasts; also called hIGFIR; IGF-I receptor of human (NP_000866)
Experimental: (§3) In ELISA, antibody solutions (30 μL) adjusted to predetermined concentrations with 0.1% skimmed milk/3% BSA/PBS were added to respective wells and were subjected to reaction at room temperature for about 1 hour. After washing with a washing liquid (tris buffer containing Tween) twice, anti-mouse-IgG antibody-ALP conjugate solutions (30 μL) adjusted to predetermined concentrations with 0.1% skimmed milk/3% BSA/PBS were added to respective wells and were subjected to reaction at room temperature for about 1 hour. After washing with a washing liquid twice, 100 μL of a substrate (PNPP) was added to each well to start the reaction.

[6] = molecular target: T6, human insulin receptor (human, UniProt P06213 28-1382); assay: Cell ELISA on HEK 293T cells expressing human insulin receptor
T6 construct: whole, on cells; Expressed on transfected HEK 293T cells; also called INSR; hINSR
Experimental: The HEK 293T cells after the lipofection were added to a 96-well plate (coated with poly-D-lysine) at a concentration of 0.8×10⁵ cells/well (about 180 μL/well) and were immobilized with 10% buffered formalin (Mildform® 10 NM, Wako), followed by blocking with phosphate buffer containing 3% BSA. The plate was used in ELISA.
as §3

[7] = molecular target: T5, human IGF-I receptor; assay: cell-based or functional assay
[8] = molecular target: guinea pig IGF-I receptor (guinea pig, UniProt P08069 31-1367 (human entry)); assay: cell-based or functional assay
[9] = molecular target: T7, recombinant human IGF-I receptor His tag (305-GR-050, R&D SYSTEMS) (human, UniProt P08069 31-932, limits assumed); assay: SPR, Biacore T200
T7 construct: Bought protein, captured on an anti-His antibody chip; also called IGF-IR-His; not shown: His tag
Experimental: The sensor chip CM3 immobilized with the anti-His monoclonal antibody was set to Biacore T200, the reaction temperature was set to 36° C., and a running buffer (HBS-EP+, BR-1006-69, GE) was fed at a flow rate 30 μL/min. The amount of the binding ligand was set to about 100 RU, and IGF-IR-His (0.5 to 2×10⁻⁸ mol/L) was added to the sensor chip to be captured by the anti-His monoclonal antibody. Ctrl IgG2a (10 nmol/L) was allowed to react for 1 minute, and HBS-EP+ was fed at a flow rate of 30 μL/min for at least 10 minutes. The analyte and HBS-EP+ were added to flow cells (1 and 2) and flow cells (3 and 4), respectively.
The reaction conditions were set to a binding time of 600 seconds and a dissociation time of 600 seconds. After completion of the reaction, washing was performed with regeneration buffer 1 (0.2% SDS), regeneration buffer 2 (100 mmol/L Tris-HCl (pH 8.5), 1 mol/L NaCl, 15 mmol/L MgCl₂), and regeneration buffer 3 (10 mmol/L glycine-HCl (pH 1.5)) for 1 minute each at a flow rate of 30 μL/min.

B1: IGF11-16 (antibody, mouse IgG1, kappa, V domains shown)
VH: QIQLQQPGAELVKPGASVKLSCKAPGYTFTSYWMHWVKQRPGQGLEWIGETNPSNSVTNYNEKFKSKATLTVDKSSSTAYMQLSSLTSEDSAVYYCTIGRGRGFAYWGQGTLVTVSA
VL: DIQMNQSPSSLSASLGDTITITCRASQNINFWLSWCQQKPGNIPKLLIYKASNLHTGVPSRFSGSGSGTDFTLTISSLQPEDIATYYCLQGQSYPYTFGGGTKLEIKR
notes: no cleavage site is stated; also called IGF-I receptor agonist antibody; IGF11-16 antibody
Avidity (absorbance difference 450-550 nm, Mock cells = 1) [1]: 5.5 fold of Mock cells
Avidity (absorbance difference 450-550 nm, Mock cells = 1) [2]: 1.5 fold of Mock cells
Avidity (absorbance difference 450-550 nm, Mock cells = 1) [3]: 5.7 fold of Mock cells
Avidity (absorbance difference 450-550 nm, Mock cells = 1) [4]: 5.6 fold of Mock cells
avidity (absorbance difference 405-550 nm, Mock cells = 1) at 0.5 nM [5]: 2.9 fold of Mock cells
avidity (absorbance difference 405-550 nm, Mock cells = 1) at 5 nM [5]: 3.7 fold of Mock cells
binding result [6]: no binding (tested: 0.5 nM and 5 nM; 1.5-fold of Mock cells)
EC50 of the myoblast proliferative activity, human myoblasts [7]: 4 pM
EC50 of the myoblast proliferative activity, guinea pig myoblasts [8]: 4 pM
KD relative to that of IGF-I [9]: < 0.02 fold of IGF-I
ka relative to that of IGF-I [9]: ~0.2 fold of IGF-I
kd relative to that of IGF-I [9]: < 0.001 fold of IGF-I
